# Data published in patent US20240228596A1 (VIB VZW, published 2024).
# Legend:
# [1] = target: T1, SARS-COV-2 RBD displayed on the surface of Saccharomyces cerevisiae cells (SARS-COV-2, UniProt P0DTC2 331-531); assay: flow cytometry, yeast-displayed RBD
# [2] = target: T1, SARS-COV-2 RBD displayed on the surface …; assay: yeast cell ELISA (FIG. 27)
# [3] = target: monomeric human Fc-fused SARS-COV-2_RBD-SD1 (SARS-COV-2, UniProt P0DTC2 319-591)
# [4] = target: SARS-COV-2 Wuhan WT Spike_del18 on VSV-delG pseudotyped particles (SARS-COV-2, UniProt P0DTC2 14-1255); assay: cell-based or functional assay
binder,measurement,setting,value
VHH3.89 (VHH) VHH: QVQLQESGGGLVQPGGSLRLSCAASGFTLDYYAIGWFREVPGKEREGLSRIDSSDGSTYYADSVKGRFTISRDNTKNIVYLQMNNLKPEDTAVYYCATDPIIQGRNWYWTGWGQGTQVTVSS,binding result,[1],binds
"KiH19 = VHH117/VHH83-10GS-KiH (bispecific antibody, V domains shown) V domain 1: DVQLQESGGGLVQPGGSLRLSCAASGKAVSISDMGWYRQPPGKQRELVATITKTGSTNYADSAQGRFTISRDNTKSAVYLEMKSLKPEDTAVYYCNAWLPYGMGPDYYGMELWGKGTQVTVSS V domain 2: DVQLQESGGGLVQPGDSLRLSCVLSGGVFTSYAMGWFRQAPGKEREFLAAITFNSDATYYADSVKGRFTISRDNAKNTAYLQMNSLKPEDTAVYSCAAGGNHYNPQYYHDYDKYDHWGQGTQVTVSS",binding result,[2],binds
VHH3.117 (VHH) VHH: QVQLQESGGGLVQPGGSLRLSCAASGKAVSISDMGWYRQPPGKQRELVATITKTGSTNYADSAQGRFTISRDNTKSAVYLEMKSLKPEDTAVYYCNAWLPYGMGPDYYGMELWGKGTQVTVSS,Kd,[3],0.445 nM
VHH72_h1_S56A (VHH) VHH: EVQLVESGGGLVQPGGSLRLSCAASGRTFSEYAMGWFRQAPGKEREFVATISWSGGATYYTDSVKGRFTISRDNAKNTVYLQMNSLRPEDTAVYYCAAAGLGTVVSEWDYDYDYWGQGTLVTVSS,IC50 Mean VSV-dG-spike SARS-COV-2,[4],1.14 µg/mL
